Here are results for 1 molecule from article PMC3812847.

This experiment concerns the target T1, C-RapL (purified domain) (human).
T1 sequence (Q8WWW0 whole entry, looked up): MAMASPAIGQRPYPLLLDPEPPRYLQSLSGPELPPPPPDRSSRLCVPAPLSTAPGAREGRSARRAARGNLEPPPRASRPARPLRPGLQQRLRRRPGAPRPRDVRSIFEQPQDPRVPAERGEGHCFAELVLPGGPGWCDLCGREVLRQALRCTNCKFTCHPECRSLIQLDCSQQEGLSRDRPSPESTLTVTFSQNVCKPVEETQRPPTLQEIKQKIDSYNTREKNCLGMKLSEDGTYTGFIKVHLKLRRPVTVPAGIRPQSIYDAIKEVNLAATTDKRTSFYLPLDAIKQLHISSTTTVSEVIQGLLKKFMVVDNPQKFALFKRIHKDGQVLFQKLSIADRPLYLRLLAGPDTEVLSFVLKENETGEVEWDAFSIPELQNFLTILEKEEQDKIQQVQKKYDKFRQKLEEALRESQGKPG
Nature of the experiment: ITC.

B1: N-SKAP1 (purified domain) (domain or fragment)
chain: MQAAALPEEIRWLLEDAEEFLAEGLRNENLSAVARDHRDHILRGFQQIKARYYWDFQPQGGDIGQDSSDDNHSGTLGLSLTSDAPFLSDYQDEGMEDIVKGAQE
As a reminder, the Kd is the constant that tells how readily two partners part at equilibrium. As usually defined, the stoichiometry N is a count of units in the complex or per binding partner. B1: the Kd was found to be 600 nM, the dH is -2.3 kcal/mol and the stoichiometry N is 0.85.
